How the values were obtained:
Test in all cases: cell-based or functional assay
[1] = target: T1, human CD40 on primary human B cells or human monocyte-derived dendritic cells (human, UniProt P25942 21-277)
[2] = target: T1, human CD40 on primary human B cells or …; remark: listed apart in the source
[3] = target: T1, human CD40 on primary human B cells or …; remark: listed apart in the source
[4] = target: T1, human CD40 on primary human B cells or …; remark: listed apart in the source

T1 sequence (P25942 21-277 H80K/K81H limits assumed): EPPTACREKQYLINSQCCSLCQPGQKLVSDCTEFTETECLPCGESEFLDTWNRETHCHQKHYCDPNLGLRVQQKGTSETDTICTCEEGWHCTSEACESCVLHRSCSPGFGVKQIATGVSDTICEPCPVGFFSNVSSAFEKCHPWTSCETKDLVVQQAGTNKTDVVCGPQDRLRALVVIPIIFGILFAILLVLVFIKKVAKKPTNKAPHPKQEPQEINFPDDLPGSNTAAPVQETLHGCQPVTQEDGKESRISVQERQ

Binder	Efficacy [MFI at highest dose], MFI CD86, human B cells with WT-CHO cells (no FAP), w/o HSA [1] [MFI]	Efficacy at highest dose, % CD86, human B cells with WT-CHO cells (no FAP), w/o HSA [1] [%]	Efficacy [MFI at highest dose], MFI CD86, human B cells with FAP-CHO cells, w/o HSA [2] [MFI]	Efficacy at highest dose, % CD86, human B cells with FAP-CHO cells, w/o HSA [2] [%]	fold increase of efficacy against SMA014, CD86 upregulation on human B cells with FAP expressing CHO cells [3] [fold]	fold increase of potency against SMA014, CD86 upregulation on human B cells with FAP expressing CHO cells [3] [fold]	EC50, % CD86, human B cells with FAP-CHO cells, w/o HSA [4] [µM]	EC50, MFI CD86, human B cells with FAP-CHO cells, w/o HSA [4] [µM]	Efficacy [MFI at highest dose], MFI CD86, human B cells with WT-CHO cells (no FAP), w HSA [1] [MFI]	Efficacy at highest dose, % CD86, human B cells with WT-CHO cells (no FAP), w HSA [1] [%]	Efficacy [MFI at highest dose], MFI CD86, human B cells with FAP-CHO cells, w HSA [2] [MFI]	Efficacy at highest dose, % CD86, human B cells with FAP-CHO cells, w HSA [2] [%]	EC50, % CD86, human B cells with FAP-CHO cells, w HSA [4] [µM]	EC50, MFI CD86, human B cells with FAP-CHO cells, w HSA [4] [µM]
SMA104 (designed binder) MRGSHHHHHHGSDLGEKLLVAALYGQDDEVRELLKAGADVNAKDQWGLTPLHKAALQGHLEIVEVLLKAGADVNAKDERGHTPLHWAARFGHLEIVEVLLKAGADVNAQDQKGYTPADLAALWGHEDIAEVLQKAAGSPTPTPTTPTPTPTTPTPTPTGSDLGKKLLQAARAGQLDEVRELLKAGADVNAKDTWGFTPLHIAAESGHLEIVEVLLKAGADVNAKDVQGRTPLHIAAHSGHLEIVEVLLKAGADVNAKDFRGWTPLHLAAWSGHLEIVEILLKAGADVNAQDKSGKTPADLAARAGHQDIAEVLQKAAGSPTPTPTTPTPTPTTPTPTPTGSDLGKKLLQAARAGQLDEVRELLKAGADVNAKDTWGFTPLHIAAESGHLEIVEVLLKAGADVNAKDVQGRTPLHIAAHSGHLEIVEVLLKAGADVNAKDFRGWTPLHLAAWSGHLEIVEILLKAGADVNAQDKSGKTPADLAARAGHQDIAEVLQKAA	252	46	6270	86.8	2	20	0.00023	0.00074	–	–	–	–	–	–
SMA087 (designed binder) MRGSHHHHHHGSDLGKKLLEAARAGQDDEVRELLKAGADVNAKDYFSHTPLHLAARNGHLKIVEVLLKAGADVNAKDFAGKTPLHLAAADGHLEIVEVLLKAGADVNAQDIFGKTPADIAADAGHEDIAEVLQKAAGSPTPTPTTPTPTPTTPTPTPTGSDLGEKLLVAALYGQDDEVRELLKAGADVNAKDQWGLTPLHKAALQGHLEIVEVLLKAGADVNAKDERGHTPLHWAARFGHLEIVEVLLKAGADVNAQDQKGYTPADLAALWGHEDIAEVLQKAAGSPTPTPTTPTPTPTTPTPTPTGSDLGKKLLQAARAGQLDEVRELLKAGADVNAKDTWGFTPLHIAAESGHLEIVEVLLKAGADVNAKDVQGRTPLHIAAHSGHLEIVEVLLKAGADVNAKDFRGWTPLHLAAWSGHLEIVEILLKAGADVNAQDKSGKTPADLAARAGHQDIAEVLQKAA	291	12.5	1640	43.4	–	–	0.0114	0.0289	299	13.7	799	27	0.0723	0.052

Source: patent US20210395318A1 (Molecular Partners, published 2021)
